Test results taken from article PMC12420816 (Nature Communications, 2025).

Molecular target: SARS-CoV-2 nsp16 with uncleaved His6-tag (SARS-CoV-2) (UniProt P0DTD1)
Experiment: native MS

## SARS-CoV-2 nsp7-11 polyprotein, tag-free with native (authentic) termini (domain or fragment)
  percent of signal as complex: 2%
